Measured values reported in PMC4644223.

T1: Snf7 labeled with Alexa488 (yeast), P39929
T1 chain: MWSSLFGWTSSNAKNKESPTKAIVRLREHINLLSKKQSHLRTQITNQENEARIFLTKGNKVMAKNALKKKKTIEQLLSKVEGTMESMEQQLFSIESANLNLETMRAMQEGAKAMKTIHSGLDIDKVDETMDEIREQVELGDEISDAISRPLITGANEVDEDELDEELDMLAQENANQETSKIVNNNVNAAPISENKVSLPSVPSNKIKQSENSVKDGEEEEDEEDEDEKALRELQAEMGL

T2: Snf7 (yeast), P39929
T2 chain: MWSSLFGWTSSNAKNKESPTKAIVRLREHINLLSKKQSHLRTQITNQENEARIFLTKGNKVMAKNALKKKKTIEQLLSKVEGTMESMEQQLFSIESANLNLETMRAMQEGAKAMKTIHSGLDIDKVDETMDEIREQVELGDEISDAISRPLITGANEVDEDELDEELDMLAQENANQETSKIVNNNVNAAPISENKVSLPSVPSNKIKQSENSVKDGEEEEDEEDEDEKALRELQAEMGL

B1: Snf7 labeled with Alexa488, P39929 1-240 (natural protein)
chain: MWSSLFGWTSSNAKNKESPTKAIVRLREHINLLSKKQSHLRTQITNQENEARIFLTKGNKVMAKNALKKKKTIEQLLSKVEGTMESMEQQLFSIESANLNLETMRAMQEGAKAMKTIHSGLDIDKVDETMDEIREQVELGDEISDAISRPLITGANEVDEDELDEELDMLAQENANQETSKIVNNNVNAAPISENKVSLPSVPSNKIKQSENSVKDGEEEEDEEDEDEKALRELQAEMGL
modifications: here or on the partner: Alexa488 label (TFP-Alexa-488), site not stated; Alexa488 label (TFP-Alexa-488), site not stated
B2: Snf7, P39929 1-240 (natural protein)
chain: MWSSLFGWTSSNAKNKESPTKAIVRLREHINLLSKKQSHLRTQITNQENEARIFLTKGNKVMAKNALKKKKTIEQLLSKVEGTMESMEQQLFSIESANLNLETMRAMQEGAKAMKTIHSGLDIDKVDETMDEIREQVELGDEISDAISRPLITGANEVDEDELDEELDMLAQENANQETSKIVNNNVNAAPISENKVSLPSVPSNKIKQSENSVKDGEEEEDEEDEDEKALRELQAEMGL

Columns and labels:
[1] = target: T1, Snf7 labeled with Alexa488 (yeast), …; test: TIRF microscopy with counting of molecules by fluorescence intensity; conditions: remark: other sources report otherwise
Snf7 (yeast), P39929 = target: T2, Snf7 (yeast), P39929; test: high-speed atomic force microscopy; conditions: remark: other sources report otherwise

| Binder | stoichiometry N [1] [monomers] | filament growth rate (subunits.s^−1.μM^−1) (Snf7 (yeast), P39929) |
| --- | --- | --- |
| B1 | 50 | – |
| B2 | – | 3 |
